Measurements published in US11220526B2, “Neuropeptide S receptor (NPSR) agonists” (Research Triangle Institute, priority 2016, dated 2022).
Square brackets hold non-standard residues; d marks the D form. Peptide text beside a SMILES is read from it. * marks the point of attachment. Phe(4-Cl) = N[C@@H](Cc1ccc(Cl)cc1)C(=O)O; Lys(Me2) = CN(C)CCCC[C@H](N)C(=O)O; Bz = O=C(c1ccccc1)*

Experiments:
C57BL/6 mice = test: Locomotor activity (horizontal, vertical, stereotypic) after i.c.v. injection; assay type: in vivo
Description: Male C57BL/6 mice (National Cancer Institute, Bethesda, Md., or Charles River Laboratories, Wilmington, Mass.), age 8-12 weeks, were group-housed (4 animals per cage) under controlled conditions (temperature 21 f 2° C.; relative humidity 50-60%; 12-hour light-dark cycle, lights on 6:00 AM) with free access to food and water. For intracerebroventricular (i.c.v.) drug injections, mice were briefly anesthetized with isofluorane. NPS was dissolved in phosphate-buffered saline (PBS, pH 7.4) containing 0.1% bovine serum albumin and injected i.c.v. (total volume: 2 μl) as described before (Xu et al., 2004). NPSR antagonist compounds were dissolved in PBS containing 10% Cremophor EL (Sigma) and 100 μl were injected intraperitoneally (i.p.).
Locomotion of mice was monitored in an automated activity system equipped with infrared sensors for both horizontal and vertical activity measurements (Versamax, Accuscan Inc., Columbus, Ohio). Male C57BL/6 mice were allowed to habituate to the recording chamber for 1 h. Vehicle or NPSR antagonist compound (in PBS, 10% cremophor EL) were injected i.p. 10 minutes before central administration of either NPS (1 nmole in 2 μl PBS, 0.1% BSA) or vehicle (PBS, 0.1% BSA). […] Horizontal activity represents infrared beam breaks in the X and Y dimension, while vertical activity was recorded by infrared sensors located 8 cm above the chamber floor (Z dimension). […]

NPSR-C-Alt = molecular target: T1, NPSR-C-Alt (Homo sapiens, UniProt Q6W5P4); details: functional assay; cited from earlier work
T1 sequence (Q6W5P4 1-377 isoform Q6W5P4-4): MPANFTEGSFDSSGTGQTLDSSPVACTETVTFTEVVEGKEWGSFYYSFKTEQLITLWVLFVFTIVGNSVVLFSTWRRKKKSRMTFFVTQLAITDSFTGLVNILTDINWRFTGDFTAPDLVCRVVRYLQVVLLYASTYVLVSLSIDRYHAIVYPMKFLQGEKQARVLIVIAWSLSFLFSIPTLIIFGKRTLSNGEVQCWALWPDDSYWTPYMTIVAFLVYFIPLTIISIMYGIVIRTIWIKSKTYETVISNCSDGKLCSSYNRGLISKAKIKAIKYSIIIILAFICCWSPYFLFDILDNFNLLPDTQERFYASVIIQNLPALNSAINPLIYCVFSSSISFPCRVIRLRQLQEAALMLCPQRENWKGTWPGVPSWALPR

[1] = NPS administration; cited from earlier work
NPSR = molecular target: T2, NPSR (Homo sapiens, UniProt Q6W5P4); details: Bernier et al. 2006; cited from earlier work
T2 sequence (Q6W5P4 1-371): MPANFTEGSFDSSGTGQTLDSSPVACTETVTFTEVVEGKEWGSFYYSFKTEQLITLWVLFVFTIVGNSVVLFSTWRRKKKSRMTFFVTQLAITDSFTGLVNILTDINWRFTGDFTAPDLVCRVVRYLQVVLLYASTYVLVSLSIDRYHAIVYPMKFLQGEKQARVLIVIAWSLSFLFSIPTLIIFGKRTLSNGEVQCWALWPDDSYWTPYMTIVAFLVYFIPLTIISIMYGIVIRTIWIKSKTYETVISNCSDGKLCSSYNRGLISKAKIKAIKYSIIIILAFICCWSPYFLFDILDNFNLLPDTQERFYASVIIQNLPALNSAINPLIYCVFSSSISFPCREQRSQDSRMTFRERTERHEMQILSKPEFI

Compound | effect of truncation on NPSR activation (NPSR) | further results
CN(C)CCCC[C@H](NC(=O)[C@H](Cc1ccc(Cl)cc1)NC(=O)c1ccccc1)C(=O)N[C@@H](CC(N)=O)C(N)=O [Example R06039-398] (Bz-[Phe(4-Cl)]-[Lys(Me2)]-Asn-NH2) |  | cumulative activities (horizontal, vertical, stereotypic) measured (C57BL/6 mice; icv administration, male C57BL/6 mice, 90 minutes recording): increasing with dose
O=C(NCCN1CCCCC1)N1CCN2C(=O)OC(c3ccccc3)(c3ccccc3)C2C1 (centres unmarked) [RTI-11817-163] |  | effect on R06039-398 mediated increases in horizontal and vertical activity (C57BL/6 mice; antagonist added to icv R06039-398, mice): reverses
SFRNGVGTGMKKTSFQRAKS [hNPS, 20 residue peptide, endogenous ligand of the neuropeptide S receptor] |  | potency at NPSR-C-Alt versus the 107I variant (NPSR-C-Alt): 30 fold lower; performance in novel recognitions assays [1]: dose-dependently improved performance
peptide 1-6: NPS with the C-terminal 14 residues removed (SFRNGV; Neuropeptide S; UniProt P0C0P6 70-75, looked up, fragment) | limited effect on the potency | 
peptide 2-20: NPS with Ser-1 removed (FRNGVGTGMKKTSFQRAKS; Neuropeptide S; UniProt P0C0P6 71-89, looked up, fragment) | detrimental to function | 
peptide 3-20: NPS with the first two NH2-terminal residues removed (RNGVGTGMKKTSFQRAKS; Neuropeptide S; UniProt P0C0P6 72-89, looked up, fragment) | largely inactive | 
peptide 4-20: NPS with the first three NH2-terminal residues removed (NGVGTGMKKTSFQRAKS; Neuropeptide S; UniProt P0C0P6 73-89, looked up, fragment) | largely inactive | 
